The chains are these.
B1: Clone C variant 20 VNAR-hFc (Fc fusion, not shown: a dimerising Fc or GST)
chain: ARVDQTPQTITKETGESLTINCVLRDSNCALSSTYWYRKKSGSTNEENISKGGRYVETVNSGSKSFSLRINDLTVEDSGTYRCNVVQYPSHNNYFWCDVYGDGTAVTVN
B2: Clone H VNAR-hFc fusion (Fc fusion, not shown: a dimerising Fc or GST)
chain: ARVDQTPQTITKETGESLTINCVLRDSNCELSSTYWYRKKSGSTNEESISKGGRYVETVNSGSKSFSLRINDLVVEDSGTYRCNVQQFPSSSNGRYWCDVYGGGTAVTVNA
notes: bivalent VNAR-Fc
B3: Clone H variant 3 VNAR-hFc (Fc fusion, not shown: a dimerising Fc or GST)
chain: B2 chain with S91W, S92G
B4: Clone H variant 8 VNAR-hFc (Fc fusion, not shown: a dimerising Fc or GST)
chain: B2 chain with S91R, S92H
B5: Clone H variant 2 VNAR-hFc (Fc fusion, not shown: a dimerising Fc or GST)
chain: B2 chain with S92W, N93P, G94F
B6: Clone H variant 4 VNAR-hFc (Fc fusion, not shown: a dimerising Fc or GST)
chain: B2 chain with S91R, S92F
B7: Clone H variant 10 VNAR-hFc (Fc fusion, not shown: a dimerising Fc or GST)
chain: B2 chain with S91W, S92F
notes: also called clone H var; 10
B8: Clone H variant 1 VNAR-hFc (Fc fusion, not shown: a dimerising Fc or GST)
chain: B2 chain with Q86V, F88W
notes: also called clone H var
B9: Clone H variant 5 VNAR-hFc (Fc fusion, not shown: a dimerising Fc or GST)
chain: B2 chain with S90N, S91R, S92W
B10: Clone H variant 6 VNAR-hFc (Fc fusion, not shown: a dimerising Fc or GST)
chain: B2 chain with S91R, S92N
B11: Clone H variant 7 VNAR-hFc (Fc fusion, not shown: a dimerising Fc or GST)
chain: B2 chain with S90T, S91R, S92T

Residue numbers refer to the chain shown, from its start.

T3 sequence (Q62351 other isoform, or with tags, fused parts or gaps mutant): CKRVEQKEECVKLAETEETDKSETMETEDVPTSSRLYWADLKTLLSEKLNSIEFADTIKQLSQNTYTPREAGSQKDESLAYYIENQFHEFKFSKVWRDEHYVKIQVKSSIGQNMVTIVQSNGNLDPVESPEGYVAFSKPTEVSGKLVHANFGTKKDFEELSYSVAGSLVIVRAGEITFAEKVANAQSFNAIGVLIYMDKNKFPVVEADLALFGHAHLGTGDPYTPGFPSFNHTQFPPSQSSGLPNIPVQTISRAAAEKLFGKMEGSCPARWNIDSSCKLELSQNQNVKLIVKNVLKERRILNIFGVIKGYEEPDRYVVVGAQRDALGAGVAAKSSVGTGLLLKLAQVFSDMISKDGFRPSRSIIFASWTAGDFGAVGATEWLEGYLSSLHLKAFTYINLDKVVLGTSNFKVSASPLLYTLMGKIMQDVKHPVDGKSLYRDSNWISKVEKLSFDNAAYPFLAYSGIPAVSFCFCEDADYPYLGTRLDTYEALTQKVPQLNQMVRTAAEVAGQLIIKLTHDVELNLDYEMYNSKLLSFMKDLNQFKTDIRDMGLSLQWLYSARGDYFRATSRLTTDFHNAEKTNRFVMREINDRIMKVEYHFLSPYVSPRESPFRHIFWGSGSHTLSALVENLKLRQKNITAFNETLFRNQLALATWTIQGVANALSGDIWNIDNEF
T1 sequence (P02786 89-760 limits assumed): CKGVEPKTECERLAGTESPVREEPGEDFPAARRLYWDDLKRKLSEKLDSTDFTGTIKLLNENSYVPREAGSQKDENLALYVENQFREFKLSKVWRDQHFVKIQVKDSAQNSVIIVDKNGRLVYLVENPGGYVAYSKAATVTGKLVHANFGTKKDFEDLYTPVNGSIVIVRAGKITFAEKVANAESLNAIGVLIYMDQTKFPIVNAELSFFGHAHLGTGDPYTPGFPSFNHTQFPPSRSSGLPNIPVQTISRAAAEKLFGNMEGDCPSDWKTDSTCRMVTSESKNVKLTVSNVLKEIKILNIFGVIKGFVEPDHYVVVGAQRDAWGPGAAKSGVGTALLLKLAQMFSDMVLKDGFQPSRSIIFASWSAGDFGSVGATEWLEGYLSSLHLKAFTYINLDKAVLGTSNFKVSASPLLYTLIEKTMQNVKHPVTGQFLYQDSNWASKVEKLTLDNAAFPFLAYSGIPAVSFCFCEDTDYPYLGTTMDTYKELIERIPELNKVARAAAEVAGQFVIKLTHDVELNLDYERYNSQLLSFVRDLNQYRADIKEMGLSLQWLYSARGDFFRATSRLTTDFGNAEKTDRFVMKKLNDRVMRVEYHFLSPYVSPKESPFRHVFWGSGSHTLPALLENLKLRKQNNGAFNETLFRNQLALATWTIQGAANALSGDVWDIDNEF
T4 sequence (Q62351 other isoform, or with tags, fused parts or gaps mutant): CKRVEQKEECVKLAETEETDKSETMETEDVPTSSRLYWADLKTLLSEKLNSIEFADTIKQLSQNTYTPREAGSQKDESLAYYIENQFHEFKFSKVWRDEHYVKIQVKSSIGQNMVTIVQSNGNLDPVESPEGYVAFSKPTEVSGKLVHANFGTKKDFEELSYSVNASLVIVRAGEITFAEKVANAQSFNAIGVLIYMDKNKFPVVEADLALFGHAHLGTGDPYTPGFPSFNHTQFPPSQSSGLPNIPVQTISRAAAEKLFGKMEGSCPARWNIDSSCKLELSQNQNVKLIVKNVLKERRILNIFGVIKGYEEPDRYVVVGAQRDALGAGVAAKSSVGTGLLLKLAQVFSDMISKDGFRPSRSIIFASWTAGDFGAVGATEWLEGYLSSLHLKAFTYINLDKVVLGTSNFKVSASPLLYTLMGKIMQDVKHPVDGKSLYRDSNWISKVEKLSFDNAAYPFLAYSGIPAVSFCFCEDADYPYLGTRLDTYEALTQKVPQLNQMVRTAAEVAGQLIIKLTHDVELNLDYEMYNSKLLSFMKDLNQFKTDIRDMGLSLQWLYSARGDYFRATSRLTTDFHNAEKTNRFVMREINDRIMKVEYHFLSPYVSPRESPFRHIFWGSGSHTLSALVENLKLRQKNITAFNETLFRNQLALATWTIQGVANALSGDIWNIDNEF

The first experiment concerns the target T1, recombinant human TfR-1, His-tagged (Sino Biological 11020-H07H) (human, UniProt P02786 89-760).
T1 construct: bought; His-tagged; also called hTfR1; hTfR-1
Put plainly: SPR, His-captured TfR1. As for the experimental part:
(§1) Detailed binding kinetic analyses were performed to gain a better understanding of the relationship between affinity and brain penetration of the Clone C variants. Biacore surface plasmon resonance (SPR) analysis using immobilised mouse and human TfR-1 was performed for selected clones (Table 2).
(§2) Binding kinetics of VNAR-Fcs was determined by surface plasmon resonance (Biacore T200, GE Healthcare). CMS chips were coated with anti-His antibodies (His Capture Kit, GE Healthcare) as recommended by the manufacturer and human or mouse his-tagged TfR1 (SinoBiological) at 10 ug/mL in HBS-EP+ (GE Healthcare) was captured at flow rate 10 ul/min (contact time 120 s). […] A flow cell without TfR1 captured served as a reference. Sensorgrams were fitted and kinetic constants were determined using Biacore T200 Evaluation software. Chips were regenerated in 10 mM Glycine-HCl, pH 1.5 (contact time: 120 s at flow rate 30 ul/min).
Take B1: the Kd was 5.61 nM, the koff was found to be 0.000291 s⁻¹ and the kon was 51900 M⁻¹ s⁻¹.

The target of the next experiment is T2, recombinant mouse TfR-1, His-tagged (Sino Biological 50741-M07H) (mouse, UniProt Q62351 89-763).
T2 construct: bought; His-tagged; also called mTfR1; mTfR-1
T2 sequence (Q62351 89-763 limits assumed, stated change not applied): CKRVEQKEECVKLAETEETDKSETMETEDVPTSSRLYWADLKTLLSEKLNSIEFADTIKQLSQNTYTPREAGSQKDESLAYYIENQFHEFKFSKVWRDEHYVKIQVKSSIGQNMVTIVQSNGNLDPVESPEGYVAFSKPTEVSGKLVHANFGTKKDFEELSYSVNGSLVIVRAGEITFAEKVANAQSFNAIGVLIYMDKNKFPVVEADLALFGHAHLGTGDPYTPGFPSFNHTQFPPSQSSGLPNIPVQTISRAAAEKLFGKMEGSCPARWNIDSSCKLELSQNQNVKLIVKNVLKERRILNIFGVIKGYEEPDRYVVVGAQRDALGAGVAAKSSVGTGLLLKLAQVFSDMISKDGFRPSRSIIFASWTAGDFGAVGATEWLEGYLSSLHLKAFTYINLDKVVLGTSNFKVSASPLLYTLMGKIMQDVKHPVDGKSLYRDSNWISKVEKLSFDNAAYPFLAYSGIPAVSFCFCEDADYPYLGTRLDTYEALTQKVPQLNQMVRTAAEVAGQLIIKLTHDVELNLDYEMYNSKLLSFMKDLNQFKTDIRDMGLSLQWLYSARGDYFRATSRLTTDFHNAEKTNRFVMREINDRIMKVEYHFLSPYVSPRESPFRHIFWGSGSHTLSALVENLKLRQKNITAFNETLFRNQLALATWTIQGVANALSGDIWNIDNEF
In words: SPR, His-captured TfR1. The procedure: as §1, §2
Take B1: the dissociation constant Kd turned out to be 2.06 nM, the off-rate (koff) was 0.000103 s⁻¹ and the kon came to 50100 M⁻¹ s⁻¹.

The next experiment addresses T1, recombinant human TfR-1, His-tagged …. Put plainly: SPR, His-captured TfR1. This is another data set of the same source. The procedure: (§3) Detailed binding kinetic analyses were performed to gain a better understanding of the relationship between affinity and brain penetration of the Clone H variants. Biacore surface plasmon resonance (SPR) analysis using immobilized mouse and human TfR-1 was performed for the clones (Table 5).
as §2
For B2, the equilibrium dissociation constant (Kd) was determined as 6.11 nM, the koff amounted to 0.00183 s⁻¹ and the kon was found to be 301000 M⁻¹ s⁻¹.
The like results for B3 were, in that order, 4.71 nM, 0.000254 s⁻¹ and 53900 M⁻¹ s⁻¹.
For the molecule B4, the Kd worked out at 25 nM, the koff amounted to 0.000948 s⁻¹ and the kon is 38000 M⁻¹ s⁻¹.
The like results for B5 were, in that order, 3.77 nM, 0.000403 s⁻¹ and 107000 M⁻¹ s⁻¹.
As for B6, the Kd is 15.9 nM, the koff came out at 0.00183 s⁻¹ and the on-rate (kon) amounted to 115000 M⁻¹ s⁻¹.
For B7, in that order: 3.37 nM, 0.000269 s⁻¹ and 79900 M⁻¹ s⁻¹.
Consider B8, for which the Kd was 2.38 nM, the off-rate (koff) stood at 0.000121 s⁻¹ and the on-rate (kon) stood at 50800 M⁻¹ s⁻¹.

A further experiment addresses T2, recombinant mouse TfR-1, His-tagged …. Put plainly: SPR, His-captured TfR1. This is another data set of the same source. As for the experimental part:
as §3, §2
For B2, the Kd was 2.54 nM, the off-rate constant (koff) stood at 9.11e-05 s⁻¹ and the kon stood at 35800 M⁻¹ s⁻¹.
The like results for B3 were, in that order, 5.59 nM, 0.000273 s⁻¹ and 48900 M⁻¹ s⁻¹.
For B4, in that order: 8.4 nM, 0.000618 s⁻¹ and 73600 M⁻¹ s⁻¹.
For B9, in that order: 11 nM, 0.000369 s⁻¹ and 33700 M⁻¹ s⁻¹.
For the molecule B10, the Kd came to 16.5 nM, the koff is 0.000417 s⁻¹ and the kon was 25300 M⁻¹ s⁻¹.
The like results for B5 were, in that order, 25.2 nM, 0.000482 s⁻¹ and 19100 M⁻¹ s⁻¹.
B6: the Kd was determined as 12.4 nM, the koff is 0.000352 s⁻¹ and the kon worked out at 28300 M⁻¹ s⁻¹.
For B11, in that order: 15.6 nM, 0.000399 s⁻¹ and 25600 M⁻¹ s⁻¹.
For B7, in that order: 5.53 nM, 0.000279 s⁻¹ and 50500 M⁻¹ s⁻¹.
For B8, in that order: 4.69 nM, 0.000195 s⁻¹ and 41600 M⁻¹ s⁻¹.

The target in another experiment is purified WT mTfR-1 (ELISA coat) (mouse, UniProt Q62351 89-763). Put plainly: ELISA, coated purified mTfR-1.
Chain of purified WT mTfR-1 (ELISA coat) (Q62351 89-763): as the sequence (Q62351 89-763 limits assumed, stated change not applied) above
For the molecule B2, the EC50 came out at 1.6 nM.
On the same count and under the same terms, with B7 the figure was 2.5 nM; with B8, 0.69 nM.

A further experiment concerns the target T3, purified mTfR1 mutant M1 (AGS) (mouse, UniProt Q62351 89-763).
T3 construct: also called N253A
Put plainly: ELISA, coated purified mTfR-1.
The molecule B2 returned an EC50 of 5.7 nM.
Still for that read-out and setting: with B7 the figure was 3.3 nM; with B8, 1.4 nM.

A further experiment concerns the target T4, purified mTfR1 mutant M2 (NAS) (mouse, UniProt Q62351 89-763).
T4 construct: also called G254A
In words: ELISA, coated purified mTfR-1.
Turning to B2, the EC50 stood at 170 nM.
B7 registered an EC50 of 22 nM.
Molecule B8 returned a concentration for a half-maximal effect (EC50) of 4.7 nM.

In another experiment the target is T5, purified mTfR1 mutant M3 (NGA) (mouse, UniProt Q62351 89-763).
T5 construct: also called S255A
T5 sequence (Q62351 other isoform, or with tags, fused parts or gaps mutant): as the sequence (Q62351 89-763 limits assumed, stated change not applied) above, with S167A counted along it
In words: ELISA, coated purified mTfR-1.
The molecule B2 returned an EC50 of 6.6 nM.
Same read-out and setting: with B7 the figure was 4 nM.
Turning to B8, the response was half-maximal at 0.99 nM (EC50).

A further experiment deals with T4, purified mTfR1 mutant M2 (NAS). In words: ELISA, coated purified mTfR-1 mutant M2 (NAS) against WT.
Consider B2, for which the “fold reduction of binding relative to WT mTfR-1” value was roughly 10 fold.
On the same count and under the same terms, with B7 the figure was roughly 10 fold; with B8, roughly 10 fold.

Source of the values: US20210403591A1 (OSSIANIX, published 2021).
